Values quoted from earlier work, collected in patent EP4725499A1, “M[…] PROTEIN FOR IMM[…] ALZHEIMER'S DISEASE” (Centro De Neurociencias De Cuba, priority 2023, dated 2024).

Molecular target: Aβ (Homo sapiens, UniProt P05067)
Sequence (P05067 672-713 limits assumed): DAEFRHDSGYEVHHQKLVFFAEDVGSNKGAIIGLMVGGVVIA

In the case of “AN1792: AN1792 vaccine, consisting of a synthetic Aβ1-42 peptide”, the “time after which responders maintained an anti-AN-1792 antibody response” value (follow-up of responders, 1-3 injections, low titers) is given as “approximately 4.6 years”, the “patients who developed an anti-Aβ antibody response” value (patients with mild to moderate AD, phase II) is given as 19.7% and the “progression of cognitive decline” value (responders compared with placebo-treated patients, follow-up) is given as “significantly reduced”.
